Test results reported in patent US20240301031A1 (JIANGSU HENGRUI PHARMACEUTICALS, published 2024).
Like-named read-outs stand apart in the source and are kept apart here.

T1: human APRIL (5860-AP-010/CF, R&D Systems) (human, UniProt O75888 115-250, limits assumed)
T1 construct: Bought protein
T1 sequence (looked up): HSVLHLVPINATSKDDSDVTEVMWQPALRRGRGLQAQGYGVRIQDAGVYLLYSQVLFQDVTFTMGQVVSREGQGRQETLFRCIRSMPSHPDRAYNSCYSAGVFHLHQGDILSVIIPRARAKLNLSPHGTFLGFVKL


Assays:
[1] = target: T2, human BAFF (10056-HNCH, Sino biological) (human, UniProt Q9Y275 134-285); experiment: competition ELISA: biotin-labeled BAFF to coated BAFF-R
T2 construct: Bought protein
Procedure: (§1) The blocking activity of the antibodies and the fusion proteins for receptors and ligands such as BAFF/BAFF-R, BAFF/BCMA, BAFF/TACI, APRIL/BCMA, APRIL/TACI, and p40/IL-12R1 was assayed by the ELISA method. The specific procedures were as follows:
(§2) A receptor protein was diluted to 2 μg/mL with PBS at pH 7.4 (BasalMedia, B320) and added to a 96-well microplate (Corning, 3590) at 100 μL/well. The plate was incubated at 4° C. overnight. After the liquid was discarded, 200 μL of 1% Casein blocking solution (Thermo, 37528) was added to each well for blocking, and the plate was incubated at 37° C. for 2 h. After the blocking was completed, the blocking solution was discarded, and the plate was washed 3 times with a PBST buffer (PBS at pH 7.4 containing 0.1% tween-20) for later use. A biotin-labeled ligand protein at a fixed concentration was mixed with the antibody or fusion protein diluted in gradient, pre-incubated at 37° C. for 30 min, and added to a blocked microplate. The plate was incubated at 37° C. for 1.5 h. After the incubation was completed, the plate was washed 3 times with PBST. 100 μL of streptavidin-HRP (Invitrogen, 434323, diluted at a ratio of 1:4000) was added to each well, and the plate was incubated at 37° C. for 1 h. The supernatant was removed, and the plate was washed 3 times with PBST. 100 μL of TMB chromogenic substrate (KPL, 5120-0077) was added to each well, and the plate was incubated at room temperature for 10-15 min. The reaction was stopped by adding 50 μL of 1 M H₂SO₄ to each well. The plate was read for absorbance values at 450 nm on a microplate reader, the curves for the inhibition of the binding of the ligands to the receptors were fitted with software, and the IC₅₀ values were calculated.

[2] = target: T2, human BAFF (10056-HNCH, Sino biological); experiment: ELISA, BAFF coated, fusion protein titrated
Procedure: (§3) The binding activity of the antibodies or fusion proteins for BAFF, APRIL, and IL-12/23 p40 was assayed by the ELISA method (coating an antigen protein). The specific procedures were as follows:
(§4) A BAFF (Sino biological, 10056-HNCH), APRIL (R&D Systems, 5860-AP-010/CF), or IL-12/23 p40 (Sino biological, 10052-H08H) protein was diluted to 1 μg/mL with a PBS (BasalMedia, B320) buffer at pH 7.4, and added to a 96-well microplate (Corning, 3590) at 100 μL/well. The plate was incubated at 4° C. overnight. After the liquid was discarded, 300 μL of 5% skim milk (BD, 232100) diluted with PBS was added to each well for blocking, and the plate was incubated at 37° C. for 2 h. After the blocking was completed, the blocking solution was discarded, and the plate was washed 3 times with a PBST buffer (PBS at pH 7.4 containing 0.1% tween-20). 100 μL of test antibody or fusion protein solution diluted in a gradient was added to each well, and the plate was incubated at 37° C. for 1 h. After the incubation was completed, the plate was washed 3 times with PBST. […] The plate was washed 3 times with PBST. 100 μL of TMB chromogenic substrate (KPL, 5120-0077) was added to each well, and the plate was incubated at room temperature for 10-15 min. The reaction was stopped by adding 50 μL of 1 M H₂SO₄ to each well. The plate was read for absorbance values at 450 nm on a microplate reader, the binding curves of the antibodies to an antigen were fitted with software, and the EC₅₀ values were calculated.

[3] = target: T2, human BAFF (10056-HNCH, Sino biological); experiment: competition ELISA: biotin-labeled BAFF to coated BAFF-R; remark: listed apart in the source
Procedure: as §1, §2

[4] = target: T2, human BAFF (10056-HNCH, Sino biological); experiment: ELISA, BAFF coated, fusion protein titrated; remark: listed apart in the source
Procedure: as §3, §4

[5] = target: T2, human BAFF (10056-HNCH, Sino biological); experiment: SPR (Biacore), sample captured on Protein A, antigen flowed, 1:1 fit
[6] = target: T1, human APRIL (5860-AP-010/CF, R&D …); experiment: as above
Procedure: A certain amount of test sample was subjected to affinity capture by a biosensor chip Protein A (GE, 29127556), then antigens at a series of concentration gradients were allowed to flow on the surface of the chip. The reaction signals were detected in real time by using Biacore (GE, 8K) to obtain association and dissociation curves. After the dissociation was completed for each cycle, the biochip was washed and regenerated with a 10 mM glycine-hydrochloric acid solution at pH 1.5 (GE, BR-1003-54). The experimental data were fitted using BIAevaluation version 4.1, GE software with a 1:1 model to obtain affinity values. The related antigen proteins used in this assay are as follows: human IL-23 (CT048-H08H, Sino biological), human IL-12 (CT050-H08H, Sino biological), human BAFF (10056-HNCH, Sino biological), human APRIL (5860-AP-010/CF, R&D Systems), cynomolgus monkey p40 (10215-CL, R&D Systems), cynomolgus monkey BAFF (BAF-CM412B, Kactus), cynomolgus monkey APRIL (APR-CM410B, Kactus), mouse BAFF (BAF-M521y, Acro Biosystems), and mouse APRIL (7907-AP/CF, R&D Systems).

Binder | EC50 [2] | IC50 [3] | EC50 [4] | further results
TACI-21Fc (Fc fusion, Fused directly to Fc; two identical polypeptides) EQGKFYDHLLRDCISCASICGQHPKQCAYFCEDKTHTCPPCPAPEAEGAPSVFLFPPKPKDTLMISRTPEVTCVVVDVSHEDPEVKFNWYVDGVEVHNAKTKPREEQYNSTYRVVSVLTVLHQDWLNGKEYKCKVSNKALPSSIEKTISKAKGQPREPQVYTLPPSRDELTKNQVSLTCLVKGFYPSDIAVEWESNGQPENNYKTTPPVLDSDGSFFLYSKLTVDKSRWQQGNVFSCSVMHEALHNHYTQKSLSLSPGK | 9.8 nM | 2520 nM |  | 
TACI-18Fc (Fc fusion, Fused directly to Fc; two identical polypeptides) CRKEQGKFYDHLLRDCISCASICGQHPKQCAYFCEDKTHTCPPCPAPEAEGAPSVFLFPPKPKDTLMISRTPEVTCVVVDVSHEDPEVKFNWYVDGVEVHNAKTKPREEQYNSTYRVVSVLTVLHQDWLNGKEYKCKVSNKALPSSIEKTISKAKGQPREPQVYTLPPSRDELTKNQVSLTCLVKGFYPSDIAVEWESNGQPENNYKTTPPVLDSDGSFFLYSKLTVDKSRWQQGNVFSCSVMHEALHNHYTQKSLSLSPGK | 0.992 nM | 3.26 nM |  | 
TACI-19Fc (Fc fusion, Fused directly to Fc; two identical polypeptides) RKEQGKFYDHLLRDCISCASICGQHPKQCAYFCEDKTHTCPPCPAPEAEGAPSVFLFPPKPKDTLMISRTPEVTCVVVDVSHEDPEVKFNWYVDGVEVHNAKTKPREEQYNSTYRVVSVLTVLHQDWLNGKEYKCKVSNKALPSSIEKTISKAKGQPREPQVYTLPPSRDELTKNQVSLTCLVKGFYPSDIAVEWESNGQPENNYKTTPPVLDSDGSFFLYSKLTVDKSRWQQGNVFSCSVMHEALHNHYTQKSLSLSPGK | 4.99 nM | 2220 nM |  | 
TACI-9-15Fc (Fc fusion, two identical polypeptides) STSCREEQGEFYDHLLRDCISCASICGQHPKQCAAFCENKLDKTHTCPPCPAPEAEGAPSVFLFPPKPKDTLMISRTPEVTCVVVDVSHEDPEVKFNWYVDGVEVHNAKTKPREEQYNSTYRVVSVLTVLHQDWLNGKEYKCKVSNKALPSSIEKTISKAKGQPREPQVYTLPPSRDELTKNQVSLTCLVKGFYPSDIAVEWESNGQPENNYKTTPPVLDSDGSFFLYSKLTVDKSRWQQGNVFSCSVMHEALHNHYTQKSLSLSPGK |  |  | 0.0869 nM | Kd [5]: 0.0773 nM; koff [5]: 2.12e-05 s⁻¹; kon [5]: 274000 M⁻¹ s⁻¹; Kd [6]: 0.0125 nM; koff [6]: 9.6e-05 s⁻¹; kon [6]: 7.67e+06 M⁻¹ s⁻¹
TACI-9-13Fc (Fc fusion, two identical polypeptides) STSCRKEQGKFYDHLLRDCISCASICGQHPKQCAYYCENKLDKTHTCPPCPAPEAEGAPSVFLFPPKPKDTLMISRTPEVTCVVVDVSHEDPEVKFNWYVDGVEVHNAKTKPREEQYNSTYRVVSVLTVLHQDWLNGKEYKCKVSNKALPSSIEKTISKAKGQPREPQVYTLPPSRDELTKNQVSLTCLVKGFYPSDIAVEWESNGQPENNYKTTPPVLDSDGSFFLYSKLTVDKSRWQQGNVFSCSVMHEALHNHYTQKSLSLSPGK |  |  | 0.433 nM | 
TACI-16Fc (Fc fusion, Fused directly to Fc; two identical polypeptides) LSCRKEQGKFYDHLLRDCISCASICGQHPKQCAYFCEDKTHTCPPCPAPEAEGAPSVFLFPPKPKDTLMISRTPEVTCVVVDVSHEDPEVKFNWYVDGVEVHNAKTKPREEQYNSTYRVVSVLTVLHQDWLNGKEYKCKVSNKALPSSIEKTISKAKGQPREPQVYTLPPSRDELTKNQVSLTCLVKGFYPSDIAVEWESNGQPENNYKTTPPVLDSDGSFFLYSKLTVDKSRWQQGNVFSCSVMHEALHNHYTQKSLSLSPGK | 0.599 nM | 2.22 nM |  | 

Further lines, with some results ahead:

EC50 [2] | IC50 [3] | EC50 [4] | Binder | further results
0.561 nM |  |  | TACI-10 Fc (Fc fusion, TACI-9 truncated at the C-terminus by 1 amino acid L, fused directly to Fc; two identical polypeptides) SLSCRKEQGKFYDHLLRDCISCASICGQHPKQCAYFCENKDKTHTCPPCPAPEAEGAPSVFLFPPKPKDTLMISRTPEVTCVVVDVSHEDPEVKFNWYVDGVEVHNAKTKPREEQYNSTYRVVSVLTVLHQDWLNGKEYKCKVSNKALPSSIEKTISKAKGQPREPQVYTLPPSRDELTKNQVSLTCLVKGFYPSDIAVEWESNGQPENNYKTTPPVLDSDGSFFLYSKLTVDKSRWQQGNVFSCSVMHEALHNHYTQKSLSLSPGK | IC50 [1]: 2.7 nM
 |  | 0.12 nM | TACI-9-10Fc (Fc fusion, TACI-9 with K6E and K10E, fused to Fc; two identical polypeptides) SLSCREEQGEFYDHLLRDCISCASICGQHPKQCAYFCENKLDKTHTCPPCPAPEAEGAPSVFLFPPKPKDTLMISRTPEVTCVVVDVSHEDPEVKFNWYVDGVEVHNAKTKPREEQYNSTYRVVSVLTVLHQDWLNGKEYKCKVSNKALPSSIEKTISKAKGQPREPQVYTLPPSRDELTKNQVSLTCLVKGFYPSDIAVEWESNGQPENNYKTTPPVLDSDGSFFLYSKLTVDKSRWQQGNVFSCSVMHEALHNHYTQKSLSLSPGK | Kd [5]: 0.081 nM; koff [5]: 1.89e-05 s⁻¹; kon [5]: 234000 M⁻¹ s⁻¹; Kd [6]: 0.0128 nM; koff [6]: 0.000112 s⁻¹; kon [6]: 8.75e+06 M⁻¹ s⁻¹
 |  | 0.223 nM | TACI-9-14Fc (Fc fusion, two identical polypeptides) STSCRKEQGKFYDHLLRDCISCASICGQHPKQCAAYCENKLDKTHTCPPCPAPEAEGAPSVFLFPPKPKDTLMISRTPEVTCVVVDVSHEDPEVKFNWYVDGVEVHNAKTKPREEQYNSTYRVVSVLTVLHQDWLNGKEYKCKVSNKALPSSIEKTISKAKGQPREPQVYTLPPSRDELTKNQVSLTCLVKGFYPSDIAVEWESNGQPENNYKTTPPVLDSDGSFFLYSKLTVDKSRWQQGNVFSCSVMHEALHNHYTQKSLSLSPGK | 
0.996 nM | 2.82 nM |  | TACI-17Fc (Fc fusion, Fused directly to Fc; two identical polypeptides) SCRKEQGKFYDHLLRDCISCASICGQHPKQCAYFCEDKTHTCPPCPAPEAEGAPSVFLFPPKPKDTLMISRTPEVTCVVVDVSHEDPEVKFNWYVDGVEVHNAKTKPREEQYNSTYRVVSVLTVLHQDWLNGKEYKCKVSNKALPSSIEKTISKAKGQPREPQVYTLPPSRDELTKNQVSLTCLVKGFYPSDIAVEWESNGQPENNYKTTPPVLDSDGSFFLYSKLTVDKSRWQQGNVFSCSVMHEALHNHYTQKSLSLSPGK | 
7.19 nM | 2360 nM |  | TACI-20Fc (Fc fusion, Fused directly to Fc; two identical polypeptides) KEQGKFYDHLLRDCISCASICGQHPKQCAYFCEDKTHTCPPCPAPEAEGAPSVFLFPPKPKDTLMISRTPEVTCVVVDVSHEDPEVKFNWYVDGVEVHNAKTKPREEQYNSTYRVVSVLTVLHQDWLNGKEYKCKVSNKALPSSIEKTISKAKGQPREPQVYTLPPSRDELTKNQVSLTCLVKGFYPSDIAVEWESNGQPENNYKTTPPVLDSDGSFFLYSKLTVDKSRWQQGNVFSCSVMHEALHNHYTQKSLSLSPGK | 
